Series [1] concerns histone H1o (H1) (human). The series is described as follows: EMSA. The following applies: no competitor DNA, EMSA: 50 mM NaCl, 25 mM Tris-HCl pH 7.5, 1 mM EDTA, 1 mM DTT, 100 ug/ml acetylated BSA, 3% glycerol, 30 min on ice. (A gel shift assay detects complexes by their altered migration in electrophoresis.)
Series [2] deals with oxidized HMGB1 (Cys23-Cys45 disulfide) (rat (sequence identical to human)). The series is described as follows: EMSA. The following applies: EMSA: 50 mM NaCl, 25 mM Tris-HCl pH 7.5, 1 mM EDTA, 1 mM DTT, 100 ug/ml acetylated BSA, 3% glycerol, 30 min on ice.
Series [3] relates to reduced HMGB1 (all-thiol) (rat (sequence identical to human)). The series is described as follows: EMSA. Particulars: EMSA: 50 mM NaCl, 25 mM Tris-HCl pH 7.5, 1 mM EDTA, 1 mM DTT, 100 ug/ml acetylated BSA, 3% glycerol, 30 min on ice.
Series [4] concerns oxidized HMGB1 (Cys23-Cys45 disulfide) (rat (sequence identical to human)). As to the kind of experiment: ligase-mediated circularization. Particulars: bending, EMSA: 50 mM NaCl, 25 mM Tris-HCl pH 7.5, 1 mM EDTA, 1 mM DTT, 100 ug/ml acetylated BSA, 3% glycerol, 30 min on ice, gels 0.5x TBE, 4 C.
Setting [5] is: covalently closed circle, gels 0.5x TBE ….

Some results are limits rather than exact numbers.

Usually Kd stands for a measure of binding affinity in units of concentration. Read a high Kd as a looser complex. For 66-bp DNA minicircle, the Kd in series [1] (setting [5]) is 5000 pM; in series [2] (oxidized, covalently closed circle, gels 0.5x TBE …) it was 250 pM; in series [3] (setting [5]) it was less than 100 pM.

For the substance 123-bp DNA duplex, in series [4], the binding signal (% of minicircles with reduced HMGB1) was less than 20.

Consider hemicatenated DNA loops (hcDNA), for which the Kd in series [1] (gels 0.5x TBE, 4 C) was 6000 pM; in series [2] (gels 0.5x TBE, 4 C), less than 10 pM; in series [3] (gels 0.5x TBE, 4 C), less than 10 pM. This substance had a binding signal (fold lower affinity than reduced (up to)) in series [2] (oxidized, gels 0.5x TBE, 4 C) of 10.

The values above are taken from paper PMC3923860.
